This note sets out measurements from IntAct's records for PubMed 19624469.

First the molecules themselves.
B1: Protein phosphatase 2C 16 (Arabidopsis thaliana (Mouse-ear cress)), Q9CAJ0 (parent)
chain: MEEMTPAVAMTLSLAANTMCESSPVEITQLKNVTDAADLLSDSENQSFCNGGTECTMEDVSELEEVGEQDLLKTLSDTRSGSSNVFDEDDVLSVVEDNSAVISEGLLVVDAGSELSLSNTAMEIDNGRVLATAIIVGESSIEQVPTAEVLIAGVNQDTNTSEVVIRLPDENSNHLVKGRSVYELDCIPLWGTVSIQGNRSEMEDAFAVSPHFLKLPIKMLMGDHEGMSPSLTHLTGHFFGVYDGHGGHKVADYCRDRLHFALAEEIERIKDELCKRNTGEGRQVQWDKVFTSCFLTVDGEIEGKIGRAVVGSSDKVLEAVASETVGSTAVVALVCSSHIVVSNCGDSRAVLFRGKEAMPLSVDHKPDREDEYARIENAGGKVIQWQGARVFGVLAMSRSIGDRYLKPYVIPEPEVTFMPRSREDECLILASDGLWDVMNNQEVCEIARRRILMWHKKNGAPPLAERGKGIDPACQAAADYLSMLALQKGSKDNISIIVIDLKAQRKFKTRT
B2: Protein phosphatase 2C 16 (Arabidopsis thaliana (Mouse-ear cress)), Q9CAJ0 (parent)
chain: B1 chain
partner: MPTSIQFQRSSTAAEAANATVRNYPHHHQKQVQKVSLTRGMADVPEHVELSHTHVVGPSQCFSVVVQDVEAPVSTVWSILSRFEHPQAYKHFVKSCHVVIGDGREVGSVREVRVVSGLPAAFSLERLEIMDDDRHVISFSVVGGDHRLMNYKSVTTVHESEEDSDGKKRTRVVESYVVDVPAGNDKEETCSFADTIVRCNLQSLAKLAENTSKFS
B3: Protein phosphatase 2C 16 (Arabidopsis thaliana (Mouse-ear cress)), Q9CAJ0 (parent)
chain: B1 chain
partner: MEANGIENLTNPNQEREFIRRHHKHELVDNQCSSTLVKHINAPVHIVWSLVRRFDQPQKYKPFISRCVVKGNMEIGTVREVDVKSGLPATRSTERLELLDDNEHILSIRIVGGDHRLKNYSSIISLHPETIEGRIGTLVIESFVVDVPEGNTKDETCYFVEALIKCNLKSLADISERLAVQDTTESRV
B4: Protein phosphatase 2C 16 (Arabidopsis thaliana (Mouse-ear cress)), Q9CAJ0 (parent)
chain: B1 chain
partner: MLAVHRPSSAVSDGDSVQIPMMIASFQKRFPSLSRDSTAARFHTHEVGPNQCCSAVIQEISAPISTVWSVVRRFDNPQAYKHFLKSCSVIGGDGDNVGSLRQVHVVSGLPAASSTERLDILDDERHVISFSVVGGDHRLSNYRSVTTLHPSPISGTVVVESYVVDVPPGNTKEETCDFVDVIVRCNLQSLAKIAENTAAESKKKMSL
B5: Protein phosphatase 2C 16 (Arabidopsis thaliana (Mouse-ear cress)), Q9CAJ0 (parent)
chain: B1 chain
partner: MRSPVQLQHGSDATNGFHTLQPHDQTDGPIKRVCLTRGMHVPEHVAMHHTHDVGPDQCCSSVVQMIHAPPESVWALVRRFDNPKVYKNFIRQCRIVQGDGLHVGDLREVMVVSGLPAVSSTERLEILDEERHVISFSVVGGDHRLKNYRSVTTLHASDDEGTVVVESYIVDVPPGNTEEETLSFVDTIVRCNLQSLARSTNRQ

One experiment covers variants of B1. As to conditions: with pyr1_arath PYR1, O49686.
For G246D, the “effect of a mutation on the interaction” value is on record as “disrupting interaction”.

The variants in another experiment derive from B2. The following applies: with pyl6_arath PYL6, Q8S8E3.
In the case of G246D, the “effect of a mutation on the interaction” value is “disrupting interaction”.

The next experiment covers variants of B3. The following applies: with pyl8_arath PYL8, Q9FGM1.
Regarding G246D, the “effect of a mutation on the interaction” value is listed as “disrupting interaction”.

The variants in a further experiment derive from B4. As to conditions: with pyl4_arath PYL4, O80920.
Turning to G246D, the “effect of a mutation on the interaction” value is “disrupting interaction”.

The variants in a further experiment derive from B5. The following applies: with pyl5_arath PYL5, Q9FLB1.
Turning to G246D, the “effect of a mutation on the interaction” value is reported as “disrupting interaction”.
